The values below are quoted from earlier work in publication PMC9502310.

In general, Kd refers to the constant that tells how readily two partners part at equilibrium.

This series deals with IL-1β (Homo sapiens) (UniProt P01584).

As to B15 (from UniProt P25212), the Kd is 0.234 nM.
